Molecular target: pre-formed Aβ oligomers (Aβ42) (UniProt P05067)
Assay: fluorescence correlation spectroscopy

- fraction of fluorescently labeled Aβ in oligomers: 59%
Substance: pre-formed Aβ oligomers (Aβ42) (from UniProt P05067 672-713) (complex)

Reference: publication doi:10.1101/2025.11.19.685371
